± gives the standard deviation of the averaged measurements.
Test: total protein half-life in vivo (active degradation + dilution); higher = more stable protein
[1] = E. coli NCM3722 delta-clpP delta-lon delta-hslV, growth: N-lim chemostat, doubling time 6 h
[2] = E. coli NCM3722 delta-clpP, growth: N-lim chemostat, doubling time 6 h
[3] = E. coli NCM3722 delta-hslV, growth: N-lim chemostat, doubling time 6 h
[4] = E. coli NCM3722 delta-lon, growth: N-lim chemostat, doubling time 6 h
[5] = E. coli NCM3722 delta-smpB, growth: N-lim chemostat, doubling time 6 h
[6] = wild type E. coli NCM3722, growth: C-lim chemostat, doubling time 3 h
[7] = wild type E. coli NCM3722, growth: C-lim chemostat, doubling time 6 h
[8] = wild type E. coli NCM3722, growth: C-lim chemostat, doubling time 12 h
[9] = wild type E. coli NCM3722, growth: N-lim chemostat, doubling time 6 h
[10] = wild type E. coli NCM3722, growth: N-lim chemostat, doubling time 12 h
[11] = wild type E. coli NCM3722, growth: P-lim chemostat, doubling time 6 h
[12] = wild type E. coli NCM3722, growth: P-lim chemostat, doubling time 12 h

Sequence	total protein half-life in vivo [1] [h]	total protein half-life in vivo [2] [h]	total protein half-life in vivo [3] [h]	total protein half-life in vivo [4] [h]	total protein half-life in vivo [5] [h]	total protein half-life in vivo [6] [h]	total protein half-life in vivo [7] [h]	total protein half-life in vivo [8] [h]	total protein half-life in vivo [9] [h]	total protein half-life in vivo [10] [h]	total protein half-life in vivo [11] [h]	total protein half-life in vivo [12] [h]
MARIIVVTSGKGGVGKTTSSAAIATGLAQKGKKTVVIDFDIGLRNLDLIMGCERRVVYDFVNVIQGDATLNQALIKDKRTENLYILPASQTRDKDALTREGVAKVLDDLKAMDFEFIVCDSPAGIETGALMALYFADEAIITTNPEVSSVRDSDRILGILASKSRRAENGEEPIKEHLLLTRYNPGRVSRGDMLSMEDVLEILRIKLVGVIPEDQSVLRASNQGEPVILDINADAGKAYADTVERLLGEERPFRFIEEEKKGFLKRLFGG [P0AEZ3]	5.31 ± 0.21	5.22 ± 0.21	5.442 ± 0.017	5.66 ± 0.15	4.87 ± 0.023	2.94 ± 0.16	5.54 ± 0.16	10.1 ± 0.8	5.17 ± 0.36	9.98 ± 0.53	4.93 ± 0.2	9.29 ± 0.22
MKKLTVAALAVTTLLSGSAFAHEAGEFFMRAGSATVRPTEGAGGTLGSLGGFSVTNNTQLGLTFTYMATDNIGVELLAATPFRHKIGTRATGDIATVHHLPPTLMAQWYFGDASSKFRPYVGAGINYTTFFDNGFNDHGKEAGLSDLSLKDSWGAAGQVGVDYLINRDWLVNMSVWYMDIDTTANYKLGGAQQHDSVRLDPWVFMFSAGYRF [P0A915]	6.65 ± 0.21	–	6.45 ± 0.39	–	6.21 ± 1.9	3.53 ± 0.14	7.52 ± 0.61	12.6 ± 1.5	7.26	> 16	6.15	15.44 ± 0.068
MANNTTGFTRIIKAAGYSWKGLRAAWINEAAFRQEGVAVLLAVVIACWLDVDAITRVLLISSVMLVMIVEILNSAIEAVVDRIGSEYHELSGRAKDMGSAAVLIAIIVAVITWCILLWSHFG [P0ABN1]	6.58 ± 0.097	6.7 ± 1.4	5.79 ± 0.99	6.03 ± 0.49	6.13 ± 0.91	3.24 ± 0.045	6.21 ± 0.12	13.3 ± 2.6	5.93 ± 0.34	13.7 ± 3.1	5.54 ± 0.21	11.3 ± 0.31
MAILGLGTDIVEIARIEAVIARSGDRLARRVLSDNEWAIWKTHHQPVRFLAKRFAVKEAAAKAFGTGIRNGLAFNQFEVFNDELGKPRLRLWGEALKLAEKLGVANMHVTLADERHYACATVIIES	5.28 ± 0.087	–	–	5.71 ± 0.46	5.093 ± 0.018	2.85 ± 0.081	5.87 ± 0.26	12.9 ± 2.6	5.35 ± 0.61	11.2 ± 1.1	5.72 ± 0.41	11.5 ± 0.7
MALIVEFICELPNGVHARPASHVETLCNTFSSQIEWHNLRTDRKGNAKSALALIGTDTLAGDNCQLLISGADEQEAHQRLSQWLRDEFPHCDAPLAEVKSDELEPLPVSLTNLNPQIIRARTVCSGSAGGILTPISSLDLNALGNLPAAKGVDAEQSALENGLTLVLKNIEFRLLDSDGATSAILEAHRSLAGDTSLREHLLAGVSAGLSCAEAIVASANHFCEEFSRSSSSYLQERALDVRDVCFQLLQQIYGEQRFPAPGKLTQPAICMADELTPSQFLELDKNHLKGLLLKSGGTTSHTVILARSFNIPTLVGVDIDALTPWQQQTIYIDGNAGAIVVEPGEAVARYYQQEARVQDALREQQRVWLTQQARTADGIRIEIAANIAHSVEAQAAFGNGAEGVGLFRTEMLYMDRTSAPGESELYNIFCQALESANGRSIIVRTMDIGGDKPVDYLNIPAEANPFLGYRAVRIYEEYASLFTTQLRSILRASAHGSLKIMIPMISSMEEILWVKEKLAEAKQQLRNEHIPFDEKIQLGIMLEVPSVMFIIDQCCEEIDFFSIGSNDLTQYLLAVDRDNAKVTRHYNSLNPAFLRALDYAVQAVHRQGKWIGLCGELGAKGSVLPLLVGLGLDELSMSAPSIPAAKARMAQLDSRECRKLLNQAMACRTSLEVEHLLAQFRMTQQDAPLVTAECITLESDWRSKEEVLKGMTDNLLLAGRCRYPRKLEADLWAREAVFSTGLGFSFAIPHSKSEHIEQSTISVARLQAPVRWGDDEAQFIIMLTLNKHAAGDQHMRIFSRLARRIMHEEFRNALVNAASADAIASLLQHELEL	–	–	–	–	–	2.7	–	7.46	–	–	–	–
MTEHTSSYYAASANKYAPFDTLNESITCDVCVVGGGYTGLSSALHLAEAGFDVVVLEASRIGFGASGRNGGQLVNSYSRDIDVIEKSYGMDTARMLGSMMFEGGEIIRERIKRYQIDCDYRPGGLFVAMNDKQLATLEEQKENWERYGNKQLELLDANAIRREVASDRYTGALLDHSGGHIHPLNLAIGEADAIRLNGGRVYELSAVTQIQHTTPAVVRTAKGQVTAKYVIVAGNAYLGDKVEPELAKRSMPCGTQVITTERLSEDLARSLIPKNYCVEDCNYLLDYYRLTADNRLLYGGGVVYGARDPDDVERLVVPKLLKTFPQLKGVKIDYRWTGNFLLTLSRMPQFGRLDTNIYYMQGYSGHGVTCTHLAGRLIAELLRGDAERFDAFANLPHYPFPGGRTLRVPFTAMGAAYYSLRDRLGV	–	6.23	5.96 ± 0.34	3.84 ± 1.7	–	0.265	6.7	4.55	1.81	6.25 ± 7.7	–	–
MNIKIAALTLAIASGISAQWAIAADMPASPAPTIPVKQYVTQVNADNSVTFRYFAPGAKNVSVVVGVPVPDNIHPMTKDEAGVWSWRTPILKGNLYEYFFNVDGVRSIDTGTAMTNPQRQVNSSMILVPGSYLDTRSVAHGDLIAITYHSNALQSERQMYVWTPPGYTGMGEPLPVLYFYHGFGDTGRSAIDQGRIPQIMDNLLAEGKIKPMLVVIPDTETDAKGIIPEDFVPQERRKVFYPLNAKAADRELMNDIIPLISKRFNVRKDADGRALAGLSQGGYQALVSGMNHLESFGWLATFSGVTTTTVPDEGVAARLNDPAAINQQLRNFTVVVGDKDVVTGKDIAGLKTELEQKKINFDYQEYPGLNHEMDVWRPAYAAFVQKLFK	4.45	–	–	–	3.45 ± 0.76	–	–	–	–	–	–	–

From the supplement of paper PMC11246515
